B1: Clone 2A2: M. jannaschii TyrRS variant for Formula I: Y32L, L65V, H70A, F108W, Q109S, D158V, I159A, L162V (protein, listed as Methanococcus jannaschii)
chain: MDEFEMIKRNTSEIISEEELREVLKKDEKSALIGFEPSGKIHLGHYLQIKKMIDLQNAGFDIIIVLADLAAYLNQKGELDEIRKIGDYNKKVFEAMGLKAKYVYGSEWSLDKDYTLNVYRLALKTTLKRARRSMELIAREDENPKVAEVIYPIMQVNVAHYVGVDVAVGGMEQRKIHMLARELLPKKVVCIHNPVLTGLDGEGKMSSSKGNFIAVDDSPEEIRAKIKKAYCPAGVVEGNPIMEIAKYFLEYPLTIKRPEKFGGDLTVNSYEELESLFKNKELHPMDLKNAVAEELIKILEPIRKRL
modifications: wild-type (WT) tyrosyl tRNA synthetase (TyrRS), reference sequence
notes: M. jannaschii TyrRS variant for Formula I: Y32L, L65V, H70A, F108W, Q109S, D158V, I159A, L162V
B2: Clone 2A9: M. jannaschii TyrRS variant for Formula II: Y32G, L65V, H70A, Q109S, D158G, L162S (protein, listed as Methanococcus jannaschii)
chain: MDEFEMIKRNTSEIISEEELREVLKKDEKSAGIGFEPSGKIHLGHYLQIKKMIDLQNAGFDIIIVLADLAAYLNQKGELDEIRKIGDYNKKVFEAMGLKAKYVYGSEFSLDKDYTLNVYRLALKTTLKRARRSMELIAREDENPKVAEVIYPIMQVNGIHYSGVDVAVGGMEQRKIHMLARELLPKKVVCIHNPVLTGLDGEGKMSSSKGNFIAVDDSPEEIRAKIKKAYCPAGVVEGNPIMEIAKYFLEYPLTIKRPEKFGGDLTVNSYEELESLFKNKELHPMDLKNAVAEELIKILEPIRKRL
modifications: wild-type (WT) tyrosyl tRNA synthetase (TyrRS), reference sequence
notes: M. jannaschii TyrRS variant for Formula II: Y32G, L65V, H70A, Q109S, D158G, L162S

Tested on: GFP (K49TAG) amber (TAG) codon / orthogonal CUA-encoding suppressor tRNA
Assay: CFPS based GFP K49TAG amber suppression assay
Format: biochemical, E. coli
Settings: for full-length GFP expression by suppression of the TAG codon: clone titrated into CFPS reactions in the absence or presence of 4 μM non-natural amino acid; for amber suppression efficiency (levels of GFP detected): in the presence of the pyridyl-amino tetrazine compound (Formula I for 2A2, Formula II for 2A9), cell-free protein synthesis, 30° C., 12 h; for amber suppression (levels of GFP detected) without non-natural amino acid: reactions lacking the non-natural amino acid and containing the common naturally occurring amino acids
Procedure: The RS variants described herein were used to incorporate the compound of Formula I or the compound Formula II into the reporter protein Superfolder GFP. GFP containing a TAG stop codon at position 49 (GFP (K49TAG)) was expressed in a cell-free protein synthesis reaction as described in Zawada et al., 2011, Biotechnol. Bioeng., 108(7)1570-1578 with the following modifications. The cell free extracts were prepared from an OmpT sensitive RF-1 attenuated strain that was also engineered to overexpress E. coli DsbC, and a similar RF-1 attenuated E. coli strain that was engineered to produce an orthogonal CUA-encoding tRNA for insertion of a non-natural amino acid at an amber stop codon. The cell free extracts were blended (at a ratio of 85:15), and then added to a premix containing all other components of a cell-free protein synthesis system except for DNA encoding GFP (K49TAG). The final concentration in the cell-free protein synthesis reaction was 30% cell extract, with or without 2 mM non-natural amino acid (either Formula I or Formula II), 4 μM, 2 μM, 1 μM or no nnAA-specific RS variant (e.g., variant clone 1A7, 2A2, 1B7, 1B8, 2A1, 2B7, 2B5, 2A5, 2B4, 2B3, or 2A9), 8 mM magnesium glutamate, 10 mM ammonium glutamate, 130 mM potassium glutamate, 35 mM sodium pyruvate, 1.2 mM AMP, 0.86 mM each of GMP, UMP, and CMP, 2 mM amino acids (except 0.5 mM for tyrosine and phenylalanine), 4 mM sodium oxalate, 1 mM putrescine, 1.5 mM spermidine, 15 mM potassium phosphate, 100 nM T7 RNAP, 10 μg/mL GFP (K49TAG) expression template plasmid. The cell-free synthesis reactions were initiated by the addition of the plasmid DNA encoding GFP (K49TAG). The reactions were incubated at 30° C. for 12 h on a shaker at 650 rpm. After 12 hours of expression at the end point GFP fluorescence signal was measured at excitation at 476 nm, emission at 510 nm on a SpectraMax M5 fluorescence plate reader.
Similarly, clone 2A9, specific for Formula II, was titrated into the GFP-based amber supression CFPS reactions in the absence or presence of 4 μM Formula II.

Molecule | GFP levels relative to the positive GFP control reaction (reaction containing the non-natural amino acid and its specific RS clone (2A2 for Formula I, 2A9 for Formula II), control GFP has no premature stop codon) | full-length GFP expression by suppression of the TAG codon | amber suppression efficiency (levels of GFP detected) | amber suppression (levels of GFP detected) without non-natural amino acid
Cc1nnc(NCc2ccc(C[C@H](N)C(=O)O)nc2)nn1 [Formula I, (S)-2-amino-3-(5-((6-methyl-1,2,4,5-tetrazin-3-ylamino)methyl)pyridin-2-yl)propanoic acid] | comparable | – | – | –
B1 | – | expressed only in the presence of the compound of Formula I | high amber suppression efficiencies | substantially no amber supression
B2 | – | expressed only in the presence of the compound of Formula II | high amber suppression efficiencies | substantially no amber supression

Source: patent US10179909B2, “Non-natural amino acid tRNA synthetases for pyridyl tetrazine” (priority 2013, dated 2019)
